Several values for one entry are separate records, joined by “and”; a condition that tells them apart may be missing. Equal values may be shown once.
What was measured:
[1] = target: T1, SYCP1 αCore-ΔNtip (amino-acids 112-783) (human, UniProt Q15431 112-783); experiment: SEC-MALS; co-expressed and co-purified SYCP1-SYCE3 complexes, 5-20 mg/ml; 20 mM Tris pH 8.0, 150 mM KCl, 2 mM DTT (Superose 6 Increase for MBP-SYCP1αN-His-SYCE3); conditions: both partners purified
T1 construct: SYCP1 α-helical core without the αNtip, amino-acids 112-783; also called SYCP1's full α-helical core, in which αNtips were deleted; source: E. coli BL21(DE3), purified, alone or in complex with SYCE3
T1 sequence (looked up): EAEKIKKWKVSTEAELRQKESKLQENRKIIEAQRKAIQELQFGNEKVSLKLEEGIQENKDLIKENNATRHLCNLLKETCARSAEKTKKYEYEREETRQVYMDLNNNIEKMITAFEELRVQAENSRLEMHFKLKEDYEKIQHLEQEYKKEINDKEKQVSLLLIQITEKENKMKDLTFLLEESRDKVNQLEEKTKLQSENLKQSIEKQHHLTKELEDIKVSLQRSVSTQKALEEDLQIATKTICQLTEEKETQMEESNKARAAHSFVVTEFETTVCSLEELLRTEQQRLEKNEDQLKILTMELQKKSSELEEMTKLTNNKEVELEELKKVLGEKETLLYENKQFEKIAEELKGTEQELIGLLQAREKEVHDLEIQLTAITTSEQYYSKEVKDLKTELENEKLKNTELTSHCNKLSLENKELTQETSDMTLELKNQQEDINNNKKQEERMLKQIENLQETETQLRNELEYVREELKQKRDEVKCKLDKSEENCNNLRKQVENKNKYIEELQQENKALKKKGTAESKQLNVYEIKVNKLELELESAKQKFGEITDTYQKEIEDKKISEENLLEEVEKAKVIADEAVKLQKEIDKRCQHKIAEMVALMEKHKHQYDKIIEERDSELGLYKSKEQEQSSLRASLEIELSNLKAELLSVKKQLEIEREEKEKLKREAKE

[2] = target: T2, SYCP1αN (amino-acids 101-362) (human, UniProt Q15431 101-362); experiment: as above; conditions: both partners purified
T2 construct: SYCP1 α-helical N-terminal region, amino-acids 101-362; source: E. coli BL21(DE3), purified, alone or co-expressed and co-purified with SYCE3
T2 sequence (looked up): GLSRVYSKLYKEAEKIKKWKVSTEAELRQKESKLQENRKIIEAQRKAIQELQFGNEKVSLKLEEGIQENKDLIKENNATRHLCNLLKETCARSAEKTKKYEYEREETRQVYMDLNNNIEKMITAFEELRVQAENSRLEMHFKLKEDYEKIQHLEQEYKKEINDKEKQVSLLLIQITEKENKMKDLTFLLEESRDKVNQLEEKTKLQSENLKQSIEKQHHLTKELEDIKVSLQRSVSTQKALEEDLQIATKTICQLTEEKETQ

SYCP1αN ΔNtip = target: T3, SYCP1αN ΔNtip (human, UniProt Q15431 112-362); experiment: as above; conditions: both partners purified
T3 construct: SYCP1αN (101-362) with the αNtip (101-111) deleted; also called SYCP1 ΔNtip; source: E. coli BL21(DE3), co-purified with SYCE3
T3 sequence (looked up): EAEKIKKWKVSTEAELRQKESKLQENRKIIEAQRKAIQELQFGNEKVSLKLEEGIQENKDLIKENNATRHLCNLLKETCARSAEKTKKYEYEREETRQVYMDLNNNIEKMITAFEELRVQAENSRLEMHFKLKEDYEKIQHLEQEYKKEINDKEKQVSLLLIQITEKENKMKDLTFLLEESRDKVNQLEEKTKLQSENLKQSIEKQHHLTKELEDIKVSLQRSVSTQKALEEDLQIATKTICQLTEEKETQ

[3] = target: T4, SYCP1αNcore (amino-acids 206-362) (human, UniProt Q15431 206-362); experiment: as above; conditions: both partners purified
T4 construct: SYCP1 αNcore (tetrameric core), amino-acids 206-362; Tetramer alone (SEC-MALS); two chains in the 2:1 complex with SYCE3; also called SYCP1 tetrameric core; source: E. coli BL21(DE3), purified alone or co-expressed and co-purified with SYCE3 (amylose, TEV, anion exchange, SEC); not shown: MBP, N-terminal, cleaved
T4 sequence (looked up): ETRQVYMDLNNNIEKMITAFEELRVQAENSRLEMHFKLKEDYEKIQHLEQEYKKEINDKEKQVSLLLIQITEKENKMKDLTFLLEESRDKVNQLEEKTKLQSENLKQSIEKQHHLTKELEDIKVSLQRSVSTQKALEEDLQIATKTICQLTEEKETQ

SYCP1αN V105E L109E = target: T5, SYCP1αN V105E L109E (human, UniProt Q15431 101-362, V105E | L109E); experiment: as above; conditions: both partners purified
T5 construct: SYCP1αN, amino-acids 101-362, with V105E L109E; source: E. coli BL21(DE3), in complex with SYCE3
T5 sequence (looked up): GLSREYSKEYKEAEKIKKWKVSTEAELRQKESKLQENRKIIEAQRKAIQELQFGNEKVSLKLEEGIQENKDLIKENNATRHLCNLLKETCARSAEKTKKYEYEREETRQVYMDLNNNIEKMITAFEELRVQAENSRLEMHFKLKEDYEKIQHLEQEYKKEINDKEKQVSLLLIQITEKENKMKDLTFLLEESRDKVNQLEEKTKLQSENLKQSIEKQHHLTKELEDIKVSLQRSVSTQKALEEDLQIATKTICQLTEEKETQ

SYCE2-TEX12core = target: T6, SYCE2-TEX12core (human, UniProt Q6PIF2 57-165; Q9BXU0 49-123, RED dye (Monolith NT Protein Labelling Kit RED) in the MST only; which chain not stated | RED dye (Monolith NT Protein Labelling Kit RED) in the MST only; which chain not stated); experiment: MST; SYCE3 titrated into 150 nM labelled SYCE2-TEX12core; Monolith NT.115, excitation and MST power 40 %; apparent affinity; conditions: both partners purified
T6 construct: SYCE2 core; TEX12 core; Unlabelled in the SEC, labelled in the MST; source: E. coli BL21(DE3), purified
T6 sequence (looked up) 1: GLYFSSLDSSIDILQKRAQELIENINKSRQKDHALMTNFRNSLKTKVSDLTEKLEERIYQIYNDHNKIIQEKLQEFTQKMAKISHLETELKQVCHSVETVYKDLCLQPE
T6 sequence (looked up) 2: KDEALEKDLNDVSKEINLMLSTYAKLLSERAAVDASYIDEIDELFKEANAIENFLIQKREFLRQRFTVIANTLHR

[4] = target: the molecule itself; experiment: SEC-MALS; proteins in isolation, 5-20 mg/ml; Superdex 200 Increase, 20 mM Tris pH 8.0, 150 mM KCl, 2 mM DTT
[5] = target: T4, SYCP1αNcore (amino-acids 206-362); experiment: ITC; SYCE3 (400 μM) injected into SYCP1αNcore (70 μM) at 30°C; 25 mM Tris pH 8.0, 250 mM KCl, 2 mM DTT; apparent affinity; conditions: both partners purified

- stoichiometry N [1]: 2 SYCP1 chains per SYCE3 chain
- stoichiometry N (SYCP1αN ΔNtip): 2 SYCP1 chains per SYCE3 chain
- stoichiometry N [3]: 2 SYCP1 chains per SYCE3 chain
- stoichiometry N (SYCP1αN V105E L109E): 2 SYCP1 chains per SYCE3 chain
- Kd (SYCE2-TEX12core): 21.8 µM
- Kd [5]: 0.17 µM
- apparent KD of one replicate [5]: 0.23 µM and 0.12 µM and 0.16 µM
B1: SYCE3 (natural protein, human, UniProt A1L190 1-88, looked up)
chain: MDDADPEERNYDNMLKMLSDLNKDLEKLLEEMEKISVQATWMAYDMVVMRTNPTLAESMRRLEDAFVNCKEEMEKNWQELLHETKQRL
notes: SYCE3 without a stated truncation; Dimer alone (SEC-MALS); one chain in the 2:1 complex with SYCP1; also called SYCE3 wild-type; free SYCE3; source: E. coli BL21(DE3), purified (Ni-NTA or amylose, TEV, anion exchange, SEC), alone or co-purified with SYCP1 constructs; not shown: His or His-MBP, N-terminal, cleaved
- stoichiometry N [2]: 2 SYCP1 chains per SYCE3 chain (2:1) and 4 SYCP1 chains with 2 SYCE3 chains (4:2)
- stoichiometry N [4]: 2

Reference: article PMC7614228, “Structural maturation of SYCP1-mediated meiotic chromosome synapsis by SYCE3” (Nature structural & molecular biology, 2023)
